Nine molecules from patent publication EP4707292A2 (The University of North Carolina at Chapel Hill, dated 2026) can be followed below.

To fix the notation:
B1: C4b-binding protein alpha chain (other)
chain: NCGPPPTLSFAAPMDITLTETRFKTGTTLKYTCLPGYVRSHSTQTLTCNSDGEWVYNTFCIYKRCRHPGELRNGQVEIKTDLSFGSQIEFSCSEGFFLIGSTTSRCEVQDRGVGWSHPLPQCEIVKCKPPPDIRNGRHSGEENFYAYGFSVTYSCDPRFSLLGHASISCTVENETIGVWRPSPPTCEKITCRKPDVSHGEMVSGFGPIYNYKDTIVFKCQKGFVLRGSSVIHCDADSKWNPSPPACEPNSCINLPDIPHASWETYPRPTKEDVYVVGTVLRYRCHPGYKPTTDEPTTVICQKNLRWTPYQGCEALCCPEPKLNNGEITQHRKSRPANHCVYFYGDEISFSCHETSRFSAICQGDGTWSPRTPSCGDICNFPPKIAHGHYKQSSSYSFFKEEIIYECDKGYILVGQAKLSCSYSHWSAPAPQCKALCRKPELVNGRLSVDKDQYVEPENVTIQCDSGYGVVGPQSITCSGNRTWYPEVPKCEWETPEGCEQVLTGKRLMQCLPNPEDVKMALEVYKLSLEIEQLELQRDSARQSTLDKEL
notes: also called C4BPA
B2: Apolipoprotein C-I (other)
chain: TPDVSSALDKLKEFGNTLEDKARELISRIKQSELSAKMREWFSETFQKVKEKLKIDS
notes: also called APOC1
B3: Kininogen-1 (other)
chain: QESQSEEIDCNDKDLFKAVDAALKKYNSQNQSNNQFVLYRITEATKTVGSDTFYSFKYEIKEGDCPVQSGKTWQDCEYKDAAKAATGECTATVGKRSSTKFSVATQTCQITPAEGPVVTAQYDCLGCVHPISTQSPDLEPILRHGIQYFNNNTQHSSLFMLNEVKRAQRQVVAGLNFRITYSIVQTNCSKENFLFLTPDCKSLWNGDTGECTDNAYIDIQLRIASFSQNCDIYPGKDFVQPPTKICVGCPRDIPTNSPELEETLTHTITKLNAENNATFYFKIDNVKKARVQVVAGKKYFIDFVARETTCSKESNEELTESCETKKLGQSLDCNAEVYVVPWEKKIYPTVNCQPLGMISLMKRPPGFSPFRSSRIGEIKEETTVSPPHTSMAPAQDEERDSGKEQGHTRRHDWGHEKQRKHNLGHGHKHERDQGHGHQRGHGLGHGHEQQHGLGHGHKFKLDDDLEHQGGHVLDHGHKHKHGHGHGKHKNKGKKNGKHNGWKTEHLASSSEDSTTPSAQTQEKTEGPTPIPSLAKPGVTVTFSDFQDSDLIATMMPPISPAPIQSDDDWIPDIQIDPNGLSFNPISDFPDTTSPKCPGRPWKSVSEINPTTQMKESYYFDLTDGLS
notes: also called KNG1
B4: CD5 antigen-like (other)
chain: SPSGVRLVGGLHRCEGRVEVEQKGQWGTVCDDGWDIKDVAVLCRELGCGAASGTPSGILYEPPAEKEQKVLIQSVSCTGTEDTLAQCEQEEVYDCSHDEDAGASCENPESSFSPVPEGVRLADGPGHCKGRVEVKHQNQWYTVCQTGWSLRAAKVVCRQLGCGRAVLTQKRCNKHAYGRKPIWLSQMSCSGREATLQDCPSGPWGKNTCNHDEDTWVECEDPFDLRLVGGDNLCSGRLEVLHKGVWGSVCDDNWGEKEDQVVCKQLGCGKSLSPSFRDRKCYGPGVGRIWLDNVRCSGEEQSLEQCQHRFWGFHDCTHQEDVAVICSG
notes: also called CD5L
B5: Ig gamma-3 chain C region (other)
chain: ASTKGPSVFPLAPCSRSTSGGTAALGCLVKDYFPEPVTVSWNSGALTSGVHTFPAVLQSSGLYSLSSVVTVPSSSLGTQTYTCNVNHKPSNTKVDKRVELKTPLGDTTHTCPRCPEPKSCDTPPPCPRCPEPKSCDTPPPCPRCPEPKSCDTPPPCPRCPAPELLGGPSVFLFPPKPKDTLMISRTPEVTCVVVDVSHEDPEVQFKWYVDGVEVHNAKTKPREEQYNSTFRVVSVLTVLHQDWLNGKEYKCKVSNKALPAPIEKTISKTKGQPREPQVYTLPPSREEMTKNQVSLTCLVKGFYPSDIAVEWESSGQPENNYNTTPPMLDSDGSFFLYSKLTVDKSRWQQGNIFSCSVMHEALHNRFTQKSLSLSPGK
notes: also called IGHG3
B6: Beta-2-glycoprotein 1 (other)
chain: GRTCPKPDDLPFSTVVPLKTFYEPGEEITYSCKPGYVSRGGMRKFICPLTGLWPINTLKCTPRVCPFAGILENGAVRYTTFEYPNTISFSCNTGFYLNGADSAKCTEEGKWSPELPVCAPIICPPPSIPTFATLRVYKPSAGNNSLYRDTAVFECLPQHAMFGNDTITCTTHGNWTKLPECREVKCPFPSRPDNGFVNYPAKPTLYYKDKATFGCHDGYSLDGPEEIECTKLGNWSAMPSCKASCKVPVKKATVVYQGERVKIQEKFKNGMLHGDKVSFFCKNKEKKCSYTEDAQCIDGTIEVPKCFKEHSSLAFWKTDASDVKPC
notes: also called APOH
B7: Hemopexin (other)
chain: TPLPPTSAHGNVAEGETKPDPDVTERCSDGWSFDATTLDDNGTMLFFKGEFVWKSHKWDRELISERWKNFPSPVDAAFRQGHNSVFLIKGDKVWVYPPEKKEKGYPKLLQDEFPGIPSPLDAAVECHRGECQAEGVLFFQGDREWFWDLATGTMKERSWPAVGNCSSALRWLGRYYCFQGNQFLRFDPVRGEVPPRYPRDVRDYFMPCPGRGHGHRNGTGHGNSTHHGPEYMRCSPHLVLSALTSDNHGATYAFSGTHYWRLDTSRDGWHSWPIAHQWPQGPSAVDAAFSWEEKLYLVQGTQVYVFLTKGGYTLVSGYPKRLEKEVGTPHGIILDSVDAAFICPGSSRLHIMAGRRLWWLDLKSGAQATWTELPWPHEKVDGALCMEKSLGPNSCSANGPGLYLIHGPNLYCYSDVEKLNAAKALPQPQNVTSLLGCTH
notes: also called HPX
B8: Protein fem-1 homolog A (other)
chain: MDLRTAVYNAARDGKLQLLQKLLSGRSREELDELTGEVAGGGTPLLIAARYGHLDVVEYLVDRCGASVEAGGSVHFDGETIEGAPPLWAASAAGHLDVVRSLLRRGASVNRTTRTNSTPLRAACFDGHLEVVRYLVGEHQADLEVANRHGHTCLMISCYKGHREIARYLLEQGAQVNRRSAKGNTALHDCAESGSLEILQLLLGCKARMERDGYGMTPLLAASVTGHTNIVEYLIQEQPGQEQVAGGEAQPGLPQEDPSTSQGCAQPQGAPCCSSSPEEPLNGESYESCCPTSREAAVEALELLGATYVDKKRDLLGALKHWRRAMELRHQGGEYLPKPEPPQLVLAYDYSREVNTTEELEALITDPDEMRMQALLIRERILGPSHPDTSYYIRYRGAVYADSGNFERCIRLWKYALDMQQSNLEPLSPMTASSFLSFAELFSYVLQDRAAKGSLGTQIGFADLMGVLTKGVREVERALQLPREPGDSAQFTKALAIILHLLYLLEKVECTPSQEHLKHQTVYRLLKCAPRGKNGFTPLHMAVDKDTTNVGRYPVGRFPSLHVVKVLLDCGADPDSRDFDNNTPLHIAAQNNCPAIMNALIEAGAHMDATNAFKKTAYELLDEKLLARGTMQPFNYVTLQCLAARALDKNKIPYKGFIPEDLEAFIELH
notes: also called FEM1A
B9: Glutathione peroxidase 3 (enzyme)
chain: QSRGQEKSKMDCHGGISGTIYEYGALTIDGEEYIPFKQYAGKYVLFVNVASYUGLTGQYIELNALQEELAPFGLVILGFPCNQFGKQEPGENSEILPTLKYVRPGGGFVPNFQLFEKGDVNGEKEQKFYTFLKNSCPPTSELLGTSDRLFWEPMKVHDIRWNFEKFLVGPDGIPIMRWHHRTTVSNVKMDILSYMRRQAALGVKRK
notes: also called GPX3

One assay deals with T1, Adeno-associated virus 9 (AAV9) virion (adeno-associated virus 9).
T1 construct: Intact virion; capsid of VP1, VP2, VP3; also called AAV9/luc; AAV9 capsid
Nature of the assay: co-IP with ADK9/LC-MS/MS, AAV9 + human serum vs control.
B1: the “fold change” value was 1.53 fold.

For the molecule B2, the “fold change” value came to 2 fold.

For the molecule B3, the “fold change” value was 0.419 fold.

Regarding B4, the “fold change” value came to 1.23 fold.

With B5, the “fold change” value was 6.33 fold.

For the molecule B6, the “fold change” value worked out at 3.43 fold.

As to B7, the “fold change” value came to 30.7 fold.

Take B8: the “fold change” value was 0.264 fold.

For the molecule B9, the “fold change” value came out at 2.74 fold.

For the next assay, the target named is T2, Adeno-associated virus 8 (AAV8) virion (adeno-associated virus 8).
T2 construct: Intact virion with packaged vector genome; capsid of 60 subunits (VP1, VP2, VP3, overlapping products of one cap gene); also called AAV8/luc; AAV8 capsid
Nature of the assay: co-IP/LC-MS/MS, AAV8 + human serum vs PBS control.
Consider B1, for which the fold change was found to be 1.53 fold.

Regarding B2, the fold change stood at 2 fold.

On to B3, for which the fold change amounted to 0.419 fold.

Consider B4, for which the fold change amounted to 1.23 fold.

Consider B5, for which the fold change was determined as 6.33 fold.

B6: the fold change came to 3.43 fold.

B7: the fold change worked out at 30.7 fold.

With B8, the fold change stood at 0.264 fold.

As to B9, the fold change amounted to 2.74 fold.
